Data taken from patent US12091446 (NATIONAL TECHNOLOGY AND ENGINEERING SOLUTIONS OF SANDIA, dated 2024).
Where two headings read alike, the source gives them in different places.

What was measured:
[1] = target: T1, SARS-COV-2 spike, Wuhan (original) (SARS-COV-2, UniProt P0DTC2 14-1273); assay: cell-based or functional assay
[2] = target: T1, SARS-COV-2 spike, Wuhan (original); assay: cell-based or functional assay; remark: listed apart in the source

Binder	EC50, neutralization of spike pseudotyped virus [1] [nM]	EC50, neutralization of spike pseudotyped virus [2] [nM]
BP2A6 Nb-huFc (Fc fusion) EVQLQASGGGFVQPGGSLRLSCAASGQTFSHYIMGWFRQAPGKEREFVSAISAGQGHATYYADSVKGRFTISRDNSKNTVYLQMNSLRAEDTATYYCAKYQDTIAPLYWGQGTQVTVSS	0.77	
DP4F2 Nb-huFc (Fc fusion) EVQLQASGGGFVQPGGSLRLSCAASGTTYSERVMGWFRQAPGKEREFVSAISSGQSDQTYYYADSVKGRFTISRDNSKNTVYLQMNSLRAEDTATYYCAPFAGDANLPREWYWGQGTQVTVSSA		65.8
BP1A10 Nb-huFc (Fc fusion) EVQLQASGGGFVQPGGSLRLSCAASGQPSDRYIMGWFRQAPGKEREFVSAISQGAANKTAYADSVKGRFTISRDNSKNTVYLQMNSLRAEDTATYYCATHFNWQNYSYWGQGTQVTVSS	8.38	
AP1B6 Nb-huFc (Fc fusion) EVQLQASGGGFVQPGGSLRLSCAASGSAFQIYAMGWFRQAPGKEREFVSAISSTDSETDHYADSVKGRFTISRDNSKNTVYLQMNSLRAEDTATYYCAVNGFDYAHSKAGPQVYWGQGTQVTVSS	3.32	
BP1B1 Nb-huFc (Fc fusion) EVQLQASGGGFVQPGGSLRLSCAASGRTFSGYIMGWFRQAPGKEREFVSAISQGDSYASYYADSVKGRFTISRDNSKNTVYLQMNSLRAEDTATYYCALYDINTVPYYWGQGTQVTVSS		4.13
KP1B5 Nb-huFc (Fc fusion) EVQLQASGGGFVQPGGSLRLSCAASGFTFDWSAMGWFRQAPGKEREFVSAISSSTSESTTYADSVKGRFTISRDNSKNTVYLQMNSLRAEDTATYYCATYYGGKTVEQDFYWGQGTQVTVSS		896
KP1C9 Nb-huFc (Fc fusion) EVQLQASGGGFVQPGGSLRLSCAASGRTFDAYSMGWFRQAPGKEREFVSAISSWSDDWTAYADSVKGRFTISRDNSKNTVYLQMNSLRAEDTATYYCALQNTKEDRLYWGQGTQVTVSS		2.89
AP1C3 Nb-huFc (Fc fusion) EVQLQASGGGFVQPGGSLRLSCAASGRTYRGYSMGWFRQAPGKEREFVSAISSWSDDWTAYADSVKGRFTISRDNSKNTVYLQMNSLRAEDTATYYCAWQYIDEIQYYWGQGTQVTVSS	1.04	
KP2C6 Nb-huFc (Fc fusion) EVQLQASGGGFVQPGGSLRLSCAASGRTFTSFHMGWFRQAPGKEREFVSAISSGDDGTQYYADSVKGRFTISRDNSKNTVYLQMNSLRAEDTATYYCAAYTTTTVPQYWGQGTQVTVSS		517
BP2A3 Nb-huFc (Fc fusion) EVQLQASGGGFVQPGGSLRLSCAASGRTFSAYSMGWFRQAPGKEREFVSAISAGDGAASYYADSVKGRFTISRDNSKNTVYLQMNSLRAEDTATYYCAHYYTTSATLDYAYWGQGTQVTVSS		58.5
AP1A5 Nb-huFc (Fc fusion) EVQLQASGGGFVQPGGSLRLSCAASGSTASHYTMGWFRQAPGKEREFVSAISSGRDHAKQYADSVKGRFTISRDNSKNTVYLQMNSLRAEDTATYYCAYEEINATQKDTLYWGQGTQVTVSS	11.9	
AP1D4 Nb-huFc (Fc fusion) EVQLQASGGGFVQPGGSLRLSCAASGHTFDAHRMGWFRQAPGKEREFVSAISSWGQSSTYYADSVKGRFTISRDNSKNTVYLQMNSLRAEDTATYYCAQTDEGNQYVYWGQGTQVTVSS	6.62	
